What is called Kd is the equilibrium constant for the complex coming apart.

This is an account of results in article PMC3905715 (Nature Communications, 2013).

First the molecules themselves.
B1: mouse Rspo2 Fu1–Fu2 (mRspo2Fu1–Fu2, N37 or I39-G144), His10 [mouse] / mouse ZNRF3 ectodomain (K53-L205), biotinylated, immobilised for SPR [modified: biotin at the C-terminal BirA recognition sequence; biotin at the C-terminal BirA … (parent complex)
chain 1: ICKGCLSCSKDNGCSRCQQKLFFFLRREGMRQYGECLHSCPSGYYGHRAPDMNRCARCRIENCDSCFSKDFCTKCKVGFYLHRGRCFDECPDGFAPLDETMECVEG
chain 2: KETAFVEVVLFESSPSGDYTTHTTGLTGRFSRAGAMLSAEGEIVQMHPLGLCNNNDEEDLYEYGWVGVVKLEQPELDPKPCLTVLGKAKRAVQRGATAVIFDVSENPEAIDQLNQGSEDPLKRPVVYVKGADAIKLMNIVNKQKVARARIQHL

The variants in the first test derive from B1. Nature of the test: SPR. In general terms: Surface plasmon resonance follows binding to a sensor surface in real time, without labels.
In the case of chain 2 Q45E, the Kd amounted to 5.6 µM.

chain 2 M46T: the dissociation constant (Kd) stood at 1.5 µM.

Variants of B1 are the subject of a further test. Nature of the test: SPR. This is another data set of the same source.
With chain 2 E57K, the equilibrium dissociation constant (Kd) is 0.68 µM.
